In the Human Domainome abundance scans (Beltran et al. 2025):
± gives the uncertainty stated by the source.

B1: Zinc finger homeobox protein 3, residues 2244 to 2299; numbered along this chain, Q15911 (parent)
chain: SSRTRFTDYQLRVLQDFFDANAYPKDDEFEQLSNLLNLPTRVIVVWFQNARQKARK

Variants of: B1
Assay: abundance fitness (aPCA) (normalised: wild type 0, dead -1); higher = more abundant; growth selection in yeast, the domain comes from the species named
Conditions: Homo sapiens

SSRTRFTDYQLRVLQDFFDANAYPKDDEFEQLSNLLNLPTRVWVVWFQNARQKARK [I43W] and SSRTRFTDYQLRVLQDFFDANAYPKDDEFEQLSNLLNLPTRVSVVWFQNARQKARK [I43S] are within error of each other in abundance fitness: -0.879 ± 0.17 for the first, -0.845 ± 0.13 for the second.

SSRTRFTDYQLRVLQDFFDANAYPKDDEFEQLSNLLNLPTRVKVVWFQNARQKARK [I43K] and SSRTRFTDYQLRVLQDFFDANAYPKDDEFEQLSNLLNLPTRVDVVWFQNARQKARK [I43D] are within error of each other in abundance fitness: -0.744 ± 0.26 for the first, -0.772 ± 0.18 for the second.

SSRTRFTDYQLRVLQDFFDANAYPKDDEFEQLSNLLNLPTRVMVVWFQNARQKARK [I43M] and SSRTRFTDYQLRVLQDFFDANAYPKDDEFEQLSNLLNLPTRVTVVWFQNARQKARK [I43T] are within error of each other in abundance fitness: -0.439 ± 0.14 for the first, -0.396 ± 0.12 for the second.

First: SSRTRFTDYQLRVLQDFFDANAYPKDDEFEQLSNLLNLPTRVCVVWFQNARQKARK [I43C]
Second: SSRTRFTDYQLRVLQDFFDANAYPKDDEFEQLSNLLNLPTRVRVVWFQNARQKARK [I43R]
The abundance fitness of the first is higher: -0.36 ± 0.17 for the first, -0.837 ± 0.094 for the second.

SSRTRFTDYQLRVLQDFFDANAYPKDDEFEQLSNLLNLPTRVNVVWFQNARQKARK [I43N] and SSRTRFTDYQLRVLQDFFDANAYPKDDEFEQLSNLLNLPTRVFVVWFQNARQKARK [I43F] are within error of each other in abundance fitness: -1 ± 0.29 for the first, -0.792 ± 0.24 for the second.

SSRTRFTDYQLRVLQDFFDANAYPKDDEFEQLSNLLNLPTRVHVVWFQNARQKARK [I43H] and SSRTRFTDYQLRVLQDFFDANAYPKDDEFEQLSNLLNLPTRVEVVWFQNARQKARK [I43E] are within error of each other in abundance fitness: -1.13 ± 0.28 for the first, -1.07 ± 0.21 for the second.

Compared with SSRTRFTDYQLRVLQDFFDANAYPKDDEFEQLSNLLNLPTRVLVVWFQNARQKARK [I43L], SSRTRFTDYQLRVLQDFFDANAYPKDDEFEQLSNLLNLPTRVGVVWFQNARQKARK [I43G] is lower in abundance fitness: -0.163 ± 0.11 for the first, -0.637 ± 0.11 for the second.

SSRTRFTDYQLRVLQDFFDANAYPKDDEFEQLSNLLNLPTRVAVVWFQNARQKARK [I43A] and SSRTRFTDYQLRVLQDFFDANAYPKDDEFEQLSNLLNLPTRVQVVWFQNARQKARK [I43Q] are within error of each other in abundance fitness: -0.56 ± 0.11 for the first, -0.637 ± 0.19 for the second.

SSRTRFTDYQLRVLQDFFDANAYPKDDEFEQLSNLLNLPTRVVVVWFQNARQKARK [I43V] and SSRTRFTDYQLRVLQDFFDANAYPKDDEFEQLSNLLNLPARVIVVWFQNARQKARK [T40A] are within error of each other in abundance fitness: -0.056 ± 0.1 for the first, -0.119 ± 0.079 for the second.

SSRTRFTDYQLRVLQDFFDANAYPKDDEFEQLSNLLNLPQRVIVVWFQNARQKARK [T40Q] and SSRTRFTDYQLRVLQDFFDANAYPKDDEFEQLSNLLNLPDRVIVVWFQNARQKARK [T40D] are within error of each other in abundance fitness: -0.214 ± 0.11 for the first, -0.356 ± 0.11 for the second.

SSRTRFTDYQLRVLQDFFDANAYPKDDEFEQLSNLLNLPPRVIVVWFQNARQKARK [T40P] and SSRTRFTDYQLRVLQDFFDANAYPKDDEFEQLSNLLNLPWRVIVVWFQNARQKARK [T40W] are within error of each other in abundance fitness: -0.047 ± 0.089 for the first, -0.136 ± 0.11 for the second.

SSRTRFTDYQLRVLQDFFDANAYPKDDEFEQLSNLLNLPMRVIVVWFQNARQKARK [T40M] and SSRTRFTDYQLRVLQDFFDANAYPKDDEFEQLSNLLNLPHRVIVVWFQNARQKARK [T40H] are within error of each other in abundance fitness: 0.073 ± 0.11 for the first, -0.127 ± 0.097 for the second.

SSRTRFTDYQLRVLQDFFDANAYPKDDEFEQLSNLLNLPIRVIVVWFQNARQKARK [T40I] and SSRTRFTDYQLRVLQDFFDANAYPKDDEFEQLSNLLNLPCRVIVVWFQNARQKARK [T40C] are within error of each other in abundance fitness: -0.175 ± 0.092 for the first, -0.012 ± 0.094 for the second.

SSRTRFTDYQLRVLQDFFDANAYPKDDEFEQLSNLLNLPLRVIVVWFQNARQKARK [T40L] and SSRTRFTDYQLRVLQDFFDANAYPKDDEFEQLSNLLNLPFRVIVVWFQNARQKARK [T40F] are within error of each other in abundance fitness: -0.105 ± 0.073 for the first, -0.107 ± 0.087 for the second.

Compared with SSRTRFTDYQLRVLQDFFDANAYPKDDEFEQLSNLLNLPRRVIVVWFQNARQKARK [T40R], SSRTRFTDYQLRVLQDFFDANAYPKDDEFEQLSNLLNLPKRVIVVWFQNARQKARK [T40K] is higher in abundance fitness: -0.139 ± 0.078 for the first, 0.221 ± 0.13 for the second.

First: SSRTRFTDYQLRVLQDFFDANAYPKDDEFEQLSNLLNLPGRVIVVWFQNARQKARK [T40G]
Second: SSRTRFTDYQLRVLQDFFDANAYPKDDEFEQLSNLLNLPSRVIVVWFQNARQKARK [T40S]
The abundance fitness of the first is lower: -0.208 ± 0.077 for the first, 0.025 ± 0.073 for the second.

SSRTRFTDYQLRVLQDFFDANAYPKDDEFEQLSNLLNLPTRVIHVWFQNARQKARK [V44H] and SSRTRFTDYQLRVLQDFFDANAYPKDDEFEQLSNLLNLPTRVIIVWFQNARQKARK [V44I] are within error of each other in abundance fitness: -0.524 ± 0.27 for the first, -0.223 ± 0.2 for the second.

SSRTRFTDYQLRVLQDFFDANAYPKDDEFEQLSNLLNLPTRVILVWFQNARQKARK [V44L] and SSRTRFTDYQLRVLQDFFDANAYPKDDEFEQLSNLLNLPTRVIQVWFQNARQKARK [V44Q] are within error of each other in abundance fitness: -0.005 ± 0.11 for the first, -0.015 ± 0.15 for the second.

SSRTRFTDYQLRVLQDFFDANAYPKDDEFEQLSNLLNLPTRVIGVWFQNARQKARK [V44G] and SSRTRFTDYQLRVLQDFFDANAYPKDDEFEQLSNLLNLPTRVIDVWFQNARQKARK [V44D] are within error of each other in abundance fitness: 0.034 ± 0.083 for the first, 0.121 ± 0.19 for the second.

SSRTRFTDYQLRVLQDFFDANAYPKDDEFEQLSNLLNLPTRVIMVWFQNARQKARK [V44M] and SSRTRFTDYQLRVLQDFFDANAYPKDDEFEQLSNLLNLPTRVIKVWFQNARQKARK [V44K] are within error of each other in abundance fitness: -0.031 ± 0.13 for the first, -0.071 ± 0.16 for the second.

SSRTRFTDYQLRVLQDFFDANAYPKDDEFEQLSNLLNLPTRVIFVWFQNARQKARK [V44F] and SSRTRFTDYQLRVLQDFFDANAYPKDDEFEQLSNLLNLPTRVIAVWFQNARQKARK [V44A] are within error of each other in abundance fitness: -0.174 ± 0.32 for the first, -0.134 ± 0.1 for the second.

Compared with SSRTRFTDYQLRVLQDFFDANAYPKDDEFEQLSNLLNLPTRVIEVWFQNARQKARK [V44E], SSRTRFTDYQLRVLQDFFDANAYPKDDEFEQLSNLLNLCTRVIVVWFQNARQKARK [P39C] is lower in abundance fitness: -0.059 ± 0.11 for the first, -0.634 ± 0.12 for the second.

Compared with SSRTRFTDYQLRVLQDFFDANAYPKDDEFEQLSNLLNLETRVIVVWFQNARQKARK [P39E], SSRTRFTDYQLRVLQDFFDANAYPKDDEFEQLSNLLNLVTRVIVVWFQNARQKARK [P39V] is lower in abundance fitness: -0.06 ± 0.15 for the first, -1.09 ± 0.14 for the second.

Variant SSRTRFTDYQLRVLQDFFDANAYPKDDEFEQLSNLLNLFTRVIVVWFQNARQKARK [P39F] has an abundance fitness of -0.715 ± 0.12.
